# Source: publication PMC12086504 (Traffic (Copenhagen, Denmark), 2025)
# T1: BicD^CC2‐CC3 (amino acids 318–782) (Drosophila, UniProt P16568 318-782, biotin on the biotin tag)
# T1 sequence (looked up): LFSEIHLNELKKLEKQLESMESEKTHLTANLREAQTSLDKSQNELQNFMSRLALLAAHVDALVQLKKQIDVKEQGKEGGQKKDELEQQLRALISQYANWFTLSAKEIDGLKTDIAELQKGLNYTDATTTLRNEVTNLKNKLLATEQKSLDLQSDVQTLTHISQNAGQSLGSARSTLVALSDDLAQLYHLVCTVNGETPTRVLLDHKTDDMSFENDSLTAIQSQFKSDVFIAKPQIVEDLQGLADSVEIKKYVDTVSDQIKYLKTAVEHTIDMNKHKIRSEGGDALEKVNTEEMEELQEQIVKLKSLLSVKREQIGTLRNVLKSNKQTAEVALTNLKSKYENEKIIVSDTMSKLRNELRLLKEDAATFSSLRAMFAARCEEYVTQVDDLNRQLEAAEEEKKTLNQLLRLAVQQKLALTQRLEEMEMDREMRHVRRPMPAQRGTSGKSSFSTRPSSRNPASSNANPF
# How the values were obtained:
# [1] = target: T1, BicD^CC2‐CC3 (amino acids 318–782); test: single-molecule TIRF microscopy
# [2] = target: T1, BicD^CC2‐CC3 (amino acids 318–782); test: interferometric scattering mass spectrometry
percent of Qdots in complexes with BicD^CC2-CC3 [1],stoichiometry N [2],Binder
16.4%,,"homodimeric Drosophila kinesin‐1 (kinesin heavy chain, no bound light chains) (natural protein, Drosophila melanogaster, UniProt P17210 1-975, looked up, biotin on the biotin tag (biotinylation occurs during expression in Sf9 cells)) MSAEREIPAEDSIKVVCRFRPLNDSEEKAGSKFVVKFPNNVEENCISIAGKVYLFDKVFKPNASQEKVYNEAAKSIVTDVLAGYNGTIFAYGQTSSGKTHTMEGVIGDSVKQGIIPRIVNDIFNHIYAMEVNLEFHIKVSYYEIYMDKIRDLLDVSKVNLSVHEDKNRVPYVKGATERFVSSPEDVFEVIEEGKSNRHIAVTNMNEHSSRSHSVFLINVKQENLENQKKLSGKLYLVDLAGSEKVSKTGAEGTVLDEAKNINKSLSALGNVISALADGNKTHIPYRDSKLTRILQESLGGNARTTIVICCSPASFNESETKSTLDFGRRAKTVKNVVCVNEELTAEEWKRRYEKEKEKNARLKGKVEKLEIELARWRAGETVKAEEQINMEDLMEASTPNLEVEAAQTAAAEAALAAQRTALANMSASVAVNEQARLATECERLYQQLDDKDEEINQQSQYAEQLKEQVMEQEELIANARREYETLQSEMARIQQENESAKEEVKEVLQALEELAVNYDQKSQEIDNKNKDIDALNEELQQKQSVFNAASTELQQLKDMSSHQKKRITEMLTNLLRDLGEVGQAIAPGESSIDLKMSALAGTDASKVEEDFTMARLFISKMKTEAKNIAQRCSNMETQQADSNKKISEYEKDLGEYRLLISQHEARMKSLQESMREAENKKRTLEEQIDSLREECAKLKAAEHVSAVNAEEKQRAEELRSMFDSQMDELREAHTRQVSELRDEIAAKQHEMDEMKDVHQKLLLAHQQMTADYEKVRQEDAEKSSELQNIILTNERREQARKDLKGLEDTVAKELQTLHNLRKLFVQDLQQRIRKNVVNEESEEDGGSLAQKQKISFLENNLDQLTKVHKQLVRDNADLRCELPKLEKRLRCTMERVKALETALKEAKEGAMRDRKRYQYEVDRIKEAVRQKHLGRRGPQAQIAKPIRSGQGAIAIRGGGAVGGPSPLAQVNPVNS"
3.7%,,"heterotetrameric kinesin^KLC (kinesin heavy chain with bound kinesin light chains) (complex, biotin on the biotin tag) heavy: MSAEREIPAEDSIKVVCRFRPLNDSEEKAGSKFVVKFPNNVEENCISIAGKVYLFDKVFKPNASQEKVYNEAAKSIVTDVLAGYNGTIFAYGQTSSGKTHTMEGVIGDSVKQGIIPRIVNDIFNHIYAMEVNLEFHIKVSYYEIYMDKIRDLLDVSKVNLSVHEDKNRVPYVKGATERFVSSPEDVFEVIEEGKSNRHIAVTNMNEHSSRSHSVFLINVKQENLENQKKLSGKLYLVDLAGSEKVSKTGAEGTVLDEAKNINKSLSALGNVISALADGNKTHIPYRDSKLTRILQESLGGNARTTIVICCSPASFNESETKSTLDFGRRAKTVKNVVCVNEELTAEEWKRRYEKEKEKNARLKGKVEKLEIELARWRAGETVKAEEQINMEDLMEASTPNLEVEAAQTAAAEAALAAQRTALANMSASVAVNEQARLATECERLYQQLDDKDEEINQQSQYAEQLKEQVMEQEELIANARREYETLQSEMARIQQENESAKEEVKEVLQALEELAVNYDQKSQEIDNKNKDIDALNEELQQKQSVFNAASTELQQLKDMSSHQKKRITEMLTNLLRDLGEVGQAIAPGESSIDLKMSALAGTDASKVEEDFTMARLFISKMKTEAKNIAQRCSNMETQQADSNKKISEYEKDLGEYRLLISQHEARMKSLQESMREAENKKRTLEEQIDSLREECAKLKAAEHVSAVNAEEKQRAEELRSMFDSQMDELREAHTRQVSELRDEIAAKQHEMDEMKDVHQKLLLAHQQMTADYEKVRQEDAEKSSELQNIILTNERREQARKDLKGLEDTVAKELQTLHNLRKLFVQDLQQRIRKNVVNEESEEDGGSLAQKQKISFLENNLDQLTKVHKQLVRDNADLRCELPKLEKRLRCTMERVKALETALKEAKEGAMRDRKRYQYEVDRIKEAVRQKHLGRRGPQAQIAKPIRSGQGAIAIRGGGAVGGPSPLAQVNPVNS light: MTQMSQDEIITNTKTVLQGLEALRVEHVSIMNGIAEVQKDNEKSDMLRKNIENIELGLSEAQVMMALTSHLQNIEAEKHKLKTQVRRLHQENAWLRDELANTQQKFQASEQLVAQLEEEKKHLEFMASVKKYDENQEQDDACDKSRTDPVVELFPDEENEDRHNMSPTPPSQFANQTSGYEIPARLRTLHNLVIQYASQGRYEVAVPLCKQALEDLERTSGHDHPDVATMLNILALVYRDQNKYKEAANLLNDALSIRGKTLGENHPAVAATLNNLAVLYGKRGKYKDAEPLCKRALEIREKVLGKDHPDVAKQLNNLALLCQNQGKYDEVEKYYQRALDIYESKLGPDDPNVAKTKNNLAGCYLKQGRYTEAEILYKQVLTRAHEREFGAIDSKNKPIWQVAEEREEHKFDNRENTPYGEYGGWHKAAKVDSPTVTTTLKNLGALYRRQGMFEAAETLEDCAMRSKKEAYDLAKQTKLSQLLTSNEKRRSKAIKEDLDFSEEKNAKP"
21.3%,2 kinesins per BicD^CC2-CC3,"Drosophila kinesin^ΔH2 (kinesin heavy chain lacking the hinge 2 region, amino acids K521‐D641) (natural protein, Drosophila melanogaster, UniProt P17210 1-975, looked up, biotin on the biotin tag) MSAEREIPAEDSIKVVCRFRPLNDSEEKAGSKFVVKFPNNVEENCISIAGKVYLFDKVFKPNASQEKVYNEAAKSIVTDVLAGYNGTIFAYGQTSSGKTHTMEGVIGDSVKQGIIPRIVNDIFNHIYAMEVNLEFHIKVSYYEIYMDKIRDLLDVSKVNLSVHEDKNRVPYVKGATERFVSSPEDVFEVIEEGKSNRHIAVTNMNEHSSRSHSVFLINVKQENLENQKKLSGKLYLVDLAGSEKVSKTGAEGTVLDEAKNINKSLSALGNVISALADGNKTHIPYRDSKLTRILQESLGGNARTTIVICCSPASFNESETKSTLDFGRRAKTVKNVVCVNEELTAEEWKRRYEKEKEKNARLKGKVEKLEIELARWRAGETVKAEEQINMEDLMEASTPNLEVEAAQTAAAEAALAAQRTALANMSASVAVNEQARLATECERLYQQLDDKDEEINQQSQYAEQLKEQVMEQEELIANARREYETLQSEMARIQQENESAKEEVKEVLQALEELAVNYDQSNKKISEYEKDLGEYRLLISQHEARMKSLQESMREAENKKRTLEEQIDSLREECAKLKAAEHVSAVNAEEKQRAEELRSMFDSQMDELREAHTRQVSELRDEIAAKQHEMDEMKDVHQKLLLAHQQMTADYEKVRQEDAEKSSELQNIILTNERREQARKDLKGLEDTVAKELQTLHNLRKLFVQDLQQRIRKNVVNEESEEDGGSLAQKQKISFLENNLDQLTKVHKQLVRDNADLRCELPKLEKRLRCTMERVKALETALKEAKEGAMRDRKRYQYEVDRIKEAVRQKHLGRRGPQAQIAKPIRSGQGAIAIRGGGAVGGPSPLAQVNPVNS"
6.6%,,"kinesin^ΔH2 with added kinesin light chain (KLC) (complex, biotin on the biotin tag) heavy: MSAEREIPAEDSIKVVCRFRPLNDSEEKAGSKFVVKFPNNVEENCISIAGKVYLFDKVFKPNASQEKVYNEAAKSIVTDVLAGYNGTIFAYGQTSSGKTHTMEGVIGDSVKQGIIPRIVNDIFNHIYAMEVNLEFHIKVSYYEIYMDKIRDLLDVSKVNLSVHEDKNRVPYVKGATERFVSSPEDVFEVIEEGKSNRHIAVTNMNEHSSRSHSVFLINVKQENLENQKKLSGKLYLVDLAGSEKVSKTGAEGTVLDEAKNINKSLSALGNVISALADGNKTHIPYRDSKLTRILQESLGGNARTTIVICCSPASFNESETKSTLDFGRRAKTVKNVVCVNEELTAEEWKRRYEKEKEKNARLKGKVEKLEIELARWRAGETVKAEEQINMEDLMEASTPNLEVEAAQTAAAEAALAAQRTALANMSASVAVNEQARLATECERLYQQLDDKDEEINQQSQYAEQLKEQVMEQEELIANARREYETLQSEMARIQQENESAKEEVKEVLQALEELAVNYDQSNKKISEYEKDLGEYRLLISQHEARMKSLQESMREAENKKRTLEEQIDSLREECAKLKAAEHVSAVNAEEKQRAEELRSMFDSQMDELREAHTRQVSELRDEIAAKQHEMDEMKDVHQKLLLAHQQMTADYEKVRQEDAEKSSELQNIILTNERREQARKDLKGLEDTVAKELQTLHNLRKLFVQDLQQRIRKNVVNEESEEDGGSLAQKQKISFLENNLDQLTKVHKQLVRDNADLRCELPKLEKRLRCTMERVKALETALKEAKEGAMRDRKRYQYEVDRIKEAVRQKHLGRRGPQAQIAKPIRSGQGAIAIRGGGAVGGPSPLAQVNPVNS light: MTQMSQDEIITNTKTVLQGLEALRVEHVSIMNGIAEVQKDNEKSDMLRKNIENIELGLSEAQVMMALTSHLQNIEAEKHKLKTQVRRLHQENAWLRDELANTQQKFQASEQLVAQLEEEKKHLEFMASVKKYDENQEQDDACDKSRTDPVVELFPDEENEDRHNMSPTPPSQFANQTSGYEIPARLRTLHNLVIQYASQGRYEVAVPLCKQALEDLERTSGHDHPDVATMLNILALVYRDQNKYKEAANLLNDALSIRGKTLGENHPAVAATLNNLAVLYGKRGKYKDAEPLCKRALEIREKVLGKDHPDVAKQLNNLALLCQNQGKYDEVEKYYQRALDIYESKLGPDDPNVAKTKNNLAGCYLKQGRYTEAEILYKQVLTRAHEREFGAIDSKNKPIWQVAEEREEHKFDNRENTPYGEYGGWHKAAKVDSPTVTTTLKNLGALYRRQGMFEAAETLEDCAMRSKKEAYDLAKQTKLSQLLTSNEKRRSKAIKEDLDFSEEKNAKP"
